This is an account of results in US20240150440A1 (LUMEN BIOSCIENCE, published 2024).

Where two headings read alike, the source gives them in different places.

As a reminder, the IC50 is the concentration needed to halve the response being measured. What is called Kd is a measure of binding affinity in units of concentration. What is called EC50 is the concentration needed to bring the measured effect to its halfway point.

Assay [1] deals with T1, recombinant SARS-CoV-2 RBD with C-terminal AviTag (SARS-CoV-2, UniProt P0DTC2 319-541).
Assay [2] addresses T1, recombinant SARS-CoV-2 RBD with …. As to the kind of experiment: ELISA, competition with coated ACE2-Fc for RBD [Cont. 9]. In general terms: An ELISA detects its analyte on a solid surface through an enzyme-linked reagent.
In assay [3] the target is SARS-COV-2 Wuhan Reference RBD (SARS-CoV-2, UniProt P0DTC2 319-541). Put plainly: ELISA, RBD coated.
For assay [4], the target named is T1, recombinant SARS-CoV-2 RBD with …. As to the kind of experiment: ELISA, competition with coated ACE2-Fc for RBD [Cont. 8].
Assay [5] shares this target. This is another data set of the same source.

B1: MBP-5HVZ-R5A-D6-H6 (VHH, not shown: large carriers; small tags and cut ends)
VHH: QVQLVESGGGLVQPGGSLRLSCAASGNDWYINSAHWYRQAPGKEREFVASVSRGGSNNYRDSVKGRFTISRDNAKNTVYLQMNSLKPEDTAVYYCAALLETSSGDYTYWGQGTQVTVSS
For the molecule B1, in assay [1], the IC50 was found to be 223 nM and the Kd was found to be 35 nM.

B2: PP1102 MBP-5HVZ-PAPA-RN-17-H6 (VHH)
VHH: QVQLVESGGGLVQPGGSLRLSCAASGSMYSRAVMHWFRQAPGKEREGVASIGRTGDSYYADSVKGRFTISRDNAKNTVYLQMNSLKPEDTAVYYCAADNLDVVYGNRYWGQGTQVTVSS
notes: Form: Dimer
On to B2, for which, in assay [2], the concentration for half-maximal inhibition (IC50) came to 2.4 nM. Further, it took 0.97 nM to reach a half-maximal effect in assay [3] (EC50).

B3: PP1104 MBP-5HVZ-PAPA-RN-19-H6 (VHH)
VHH: QVQLVESGGGLVQPGGSLRLSCAASGIDDSIGAMHWFRQAPGKGREFVAALSGTGTTSYADSVKGRFTISRDNAKNTVYLQMNSLKPEDTAVYYCAAAFPAGGDYWGQGTQVTVSS
notes: Form: Dimer
With B3, in assay [2], the IC50 stood at 3.5 nM. The same molecule gave a concentration for a half-maximal effect (EC50) in assay [3] of 1.21 nM.

B4: PP1114 MBP-5HVZ-PAPA-RN-30-H6 (VHH)
VHH: QVQLVESGGGLVQPGGSLRLSCAASGIPASYLNMHWFRQAPGKQREWVAGAGGTNSNYYQDSVKGRFTISRDNAKNTVYLQMNSLKPEDTAVYYCAALDGAESYDYVYPVWGQGTQVTVSS
notes: Form: Dimer
In the case of B4, in assay [2], the IC50 is 3.4 nM. This molecule also registered an EC50 in assay [3] of 1.14 nM.

B5: PP1101 MBP-5HVZ-PAPA-RN-16-H6 (VHH)
VHH: QVQLVESGGGLVQPGGSLRLSCAASGADFSSNAMHWFRQAPGKAREFVASIDSDKSGYYADSVKGRFTISRDNAKNTVYLQMNSLKPEDTAVYYCNAYSGTDNYGYDYWGQGTQVTVSS
notes: Form: Dimer
As to B5, the concentration for half-maximal inhibition (IC50) in assay [2] stood at 13.9 nM. A half-maximal response in assay [3] (EC50) required 1.56 nM.

B6: PP933 MBP-5HVZ-R5e-C1-H6 (VHH)
VHH: QVQLVESGGGLVQPGGSLRLSCAASGSIPYVQAMSWFRQAPGKGREGVASIGWGGGTYYADSVKGRFTISRDNAKNTVYLQMNSLKPEDTAVYYCAAKFRENFSFYDYWGQGTQVTVSS
notes: Form: Dimer
B6: the midpoint of the response in assay [3], the EC50, lay at 4.9 nM. Moreover, the half-maximal inhibitory concentration (IC50) in assay [4] came out at 1.9 nM.

B7: MBP-5HVZ-R5C-A1-H6 (VHH, not shown: large carriers; small tags and cut ends)
VHH: QVQLVESGGGLVQPGGSLRLSCAASGLDVSINFMHWYRQAPGKEREGVAGITWQGSTYYADSVKGRFTISRDNAKNTVYLQMNSLKPEDTAVYYCATVWAGGTPNDYWGQGTQVTVSS
In the case of B7, in assay [5], the IC50 stood at 10.3 nM and the Kd was 379 nM.

B8: PP1113 MBP-5HVZ-PAPA-RN-29-H6 (VHH)
VHH: QVQLVESGGGLVQPGGSLRLSCAASGYILSENLTAWFRQAPGKAREVVATVTSGDYTNYDDSVKGRFTISRDNAKNTVYLQMNSLKPEDTAVYYCAAGTSDWEVKWSHWGQGTQVTVSS
notes: Form: Dimer
B8: the half-inhibitory concentration (IC50) in assay [2] stood at 4.9 nM. The molecule also returned an EC50 in assay [3] of 0.34 nM.

B9: PP1115 MBP-5HVZ-PAPA-RN-31-H6 (VHH)
VHH: QVQLVESGGGLVQPGGSLRLSCAASGSTGSDYAMHWFRQAPGKDREWVAGISSYGSDSYGDSVKGRFTISRDNAKNTVYLQMNSLKPEDTAVYYCAALQASAGAGYYYDYWGQGTQVTVSS
notes: Form: Dimer
Consider B9, for which the IC50 in assay [2] was 11.6 nM. In assay [3], this molecule gave an EC50 of 4.9 nM.

B10: PP1103 MBP-5HVZ-PAPA-RN-18-H6 (VHH)
VHH: QVQLVESGGGLVQPGGSLRLSCAASGYYFQIVAMHWYRQAPGKEREGVAGITSTGSTYYGDSVKGRFTISRDNAKNTVYLQMNSLKPEDTAVYYCNAVSTDAQGAAEYWGQGTQVTVSS
notes: Form: Dimer
As to B10, the IC50 in assay [2] was 53.3 nM. In addition, in assay [3], the midpoint of the response, the EC50, lay at 2.4 nM.

B11: PP922 MBP-R5a-F5-H6 (VHH)
VHH: QVQLVESGGGLVQPGGSLRLSCAASGYHASILAMHWVRQAPGKEREWVASMTWSDMTQYSDSVKGRFTISRDNAKNTVYLQMNSLKPEDTAVYYCAATYVTRDRPWTHWGQGTQVTVSS
notes: Form: Monomer
As for B11, the IC50 in assay [4] is 97.9 nM.

B12: MBP-5HVZ-R5C-E1-H6 (VHH, not shown: large carriers; small tags and cut ends)
VHH: QVQLVESGGGLVQPGGSLRLSCAASGYIFSATVMHWFRQAPGKQREGVASINSTGSSQYADSVKGRFTISRDNAKNTVYLQMNSLKPEDTAVYYCAADGADVVYGNRYWGQGTQVTVSS
For B12, in assay [5], the IC50 turned out to be 4.5 nM and the Kd amounted to 6.13 nM.

B13: MBP-R5C-B1-H6 (VHH, not shown: large carriers; small tags and cut ends)
VHH: QVQLVESGGGLVQPGGSLRLSCAASGSGFSNNAMHWYRQAPGKQREGVAGITSGSVSFYADSVKGRFTISRDNAKNTVYLQMNSLKPEDTAVYYCAAVTGSSTGNAGQGYLTWGQGTQVTVSS
In the case of B13, in assay [5], the Kd was 55.3 nM.

B14: PP1111 MBP-5HVZ-PAPA-RN-27-H6 (VHH)
VHH: QVQLVESGGGLVQPGGSLRLSCAASGPQFSSNAVSWFRQAPGKEREWVAGITSGGSTDYADSVKGRFTISRDNAKNTVYLQMNSLKPEDTAVYYCTAPSVSDADRRTRDYWGQGTQVTVSS
notes: Form: Dimer
For the molecule B14, the IC50 in assay [2] is 9.4 nM. In assay [3], this molecule had an EC50 of 0.33 nM.

B15: PP1112 MBP-5HVZ-PAPA-RN-28-H6 (VHH)
VHH: QVQLVESGGGLVQPGGSLRLSCAASGSQFSHNLMSWFRQAPGKQREFVAAITSFGSTGYADSVKGRFTISRDNAKNTVYLQMNSLKPEDTAVYYCAALSSEDTSHYPRNYWGQGTQVTVSS
notes: Form: Dimer
On to B15, for which the half-maximal inhibitory concentration (IC50) in assay [2] came to 10.5 nM. Moreover, the midpoint of the response in assay [3], the EC50, lay at 1.36 nM.

B16: PP1109 MBP-5HVZ-PAPA-RN-25-H6 (VHH)
VHH: QVQLVESGGGLVQPGGSLRLSCAASGEDYSYNAAHWFRQAPGKEREWVAAINSGGGTYYADSVKGRFTISRDNAKNTVYLQMNSLKPEDTAVYYCAYLGALDRDGYDAWGQGTQVTVSS
notes: Form: Dimer
On to B16, for which, in assay [2], the IC50 came to 29.6 nM. In assay [3], it took 1.06 nM to reach a half-maximal effect (EC50).

B17: PP1105 MBP-5HVZ-PAPA-RN-20-H6 (VHH)
VHH: QVQLVESGGGLVQPGGSLRLSCAASGNYFEINKMHWFRQAPGKQREFVATIGSGGSTAYADSVKGRFTISRDNAKNTVYLQMNSLKPEDTAVYYCNALIYLADRRDGYYSYDYWGQGTQVTVSS
notes: Form: Dimer
As for B17, the IC50 in assay [2] is 7.2 nM. The EC50 in assay [3] is 1.24 nM.

B18: PP935 MBP-5HVZ-S3b-E11-H6 (VHH)
VHH: QVQLVESGGGLVQPGGSLRLSCAASGDIYSQSAMAWYRQAPGKEREFVAAITTTGSRSYKDSVKGRFTISRDNAKNTVYLQMNSLKPEDTAVYYCAAFAVRSSSVSDAYDYWGQGTQVTVSS
notes: Form: Dimer
Take B18: it took 0.47 nM to reach a half-maximal effect in assay [3] (EC50). Also, the half-maximal inhibitory concentration (IC50) in assay [4] was 12.2 nM.

B19: PP1095 MBP-5HVZ-PAPA-RN-2-H6 (VHH)
VHH: QVQLVESGGGLVQPGGSLRLSCAASGSYFSKNAVHWYRQAPGKGREWVAALTNSGSGNYKDSVKGRFTISRDNAKNTVYLQMNSLKPEDTAVYYCTANISESTGQGYDYWGQGTQVTVSS
On to B19, for which, in assay [3], the EC50 turned out to be 0.78 nM. Also, the IC50 in assay [4] stood at 3.2 nM.

B20: PP1110 MBP-5HVZ-PAPA-RN-26-H6 (VHH)
VHH: QVQLVESGGGLVQPGGSLRLSCAASGSISSINSMHWYRQAPGKEREWVAAVSSYGSDYYADSVKGRFTISRDNAKNTVYLQMNSLKPEDTAVYYCAARTVTGFTYGDYWGQGTQVTVSS
notes: Form: Dimer
Take B20: the IC50 in assay [2] came out at 156 nM. The molecule further returned an EC50 in assay [3] of 3.5 nM.

B21: MBP-R5C-E3-H6 (VHH, not shown: large carriers; small tags and cut ends)
VHH: QVQLVESGGGLVQPGGSLRLSCAASGSFFSINAVHWFRQAPGKEREFVASISVGDSRSYRDSVKGRFTISRDNAKNTVYLQMNSLKPEDTAVYYCAAQIYITTYELYDYWGQGTQVTVSS
For B21, the Kd in assay [5] was ~1370 nM.

B22: MBP-5HVZ-R5C-E3-H6 (VHH, not shown: large carriers; small tags and cut ends)
VHH: B21 VHH
B22: the IC50 in assay [5] was found to be 9.2 nM.

B23: MBP-5HVZ-R5C-B2-H6 (VHH, not shown: large carriers; small tags and cut ends)
VHH: QVQLVESGGGLVQPGGSLRLSCAASGSIFSLNWVHWFRQAPGKSREGVASINSGGHADYSDSVKGRFTISRDNAKNTVYLQMNSLKPEDTAVYYCAAGPYGAYNFNSWGQGTQVTVSS
Consider B23, for which, in assay [5], the IC50 was 5.9 nM and the Kd was 57.3 nM.

B24: PP1106 MBP-5HVZ-PAPA-RN-21-H6 (VHH)
VHH: QVQLVESGGGLVQPGGSLRLSCAASGLQTSDNAMHWFRQAPGKNRELVAGLTSGTSRNYGDSVKGRFTISRDNAKNTVYLQMNSLKPEDTAVYYCAAFPDVGDASSIGFVYWGQGTQVTVSS
notes: Form: Dimer
For B24, the IC50 in assay [2] is 9.7 nM. This molecule also showed a concentration for a half-maximal effect (EC50) in assay [3] of 2.52 nM.

B25: PP1107 MBP-5HVZ-PAPA-RN-22-H6 (VHH)
VHH: QVQLVESGGGLVQPGGSLRLSCAASGSISEINLLHWFRQAPGKQREWVATMTSGGSTDYADSVKGRFTISRDNAKNTVYLQMNSLKPEDTAVYYCAADEFTKYGHGRYWGQGTQVTVSS
notes: Form: Dimer
B25: the IC50 in assay [2] is 3.9 nM. Also, in assay [3], the EC50 came out at 0.27 nM.

B26: PP1108 MBP-5HVZ-PAPA-RN-23-H6 (VHH)
VHH: QVQLVESGGGLVQPGGSLRLSCAASGGEKSISAAHWYRQAPGKEREFVAAITAASTTSYADSVKGRFTISRDNAKNTVYLQMNSLKPEDTAVYYCTAVLYDSYDYWGQGTQVTVSS
notes: Form: Dimer
In the case of B26, in assay [2], the IC50 was found to be 380 nM. Further, the EC50 in assay [3] was found to be 2.61 nM.

B27: R5C-A2 (competition ELISA sample) (VHH)
VHH: QVQLVESGGGLVQPGGSLRLSCAASGDIFSKNAMHWVRQAPGKQREFVAGIYSDGSSLYADSVKGRFTISRDNAKNTVYLQMNSLKPEDTAVYYCAALDYSARYRTWGQGTQVTVSS
On to B27, for which, in assay [5], the IC50 is 13.7 nM and the Kd amounted to 13.2 nM.

B28: PP1094 MBP-5HVZ-PAPA-RN-1-H6 (VHH)
VHH: QVQLVESGGGLVQPGGSLRLSCAASGYIFEGGPTAWFRQAPGKGREFVAAITTSGETSYAYSVKGRFTISRDNAKNTVYLQMNSLKPEDTAVYYCNATDRDETGYDYWGQGTQVTVSS
B28: the EC50 in assay [3] amounted to 0.96 nM. Also, the IC50 in assay [4] was determined as 7.8 nM.
